Source: patent US20160176932A1 (Janssen / Centocor, published 2016)

What was measured:
A2_F24 VI56IV (RSV A2) = A2_F24 VI56IV (RSV A2) (UniProt P03420); assay: Octet endpoint assay, CR9501 on sensor, culture supernatant
B1_N67I, S215P = biological target: T1, B1_N67I, S215P (RSV B1, UniProt O36634 27-109; O36634 137-540); assay: Quantitative Octet, CR9501 on sensor, culture supernatant
T1 construct: also called PreF N67I S215P, RSV B1, fibritin
T1 chain 1: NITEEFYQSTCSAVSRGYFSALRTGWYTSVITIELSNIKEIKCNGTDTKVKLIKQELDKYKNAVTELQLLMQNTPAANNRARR
T1 chain 2: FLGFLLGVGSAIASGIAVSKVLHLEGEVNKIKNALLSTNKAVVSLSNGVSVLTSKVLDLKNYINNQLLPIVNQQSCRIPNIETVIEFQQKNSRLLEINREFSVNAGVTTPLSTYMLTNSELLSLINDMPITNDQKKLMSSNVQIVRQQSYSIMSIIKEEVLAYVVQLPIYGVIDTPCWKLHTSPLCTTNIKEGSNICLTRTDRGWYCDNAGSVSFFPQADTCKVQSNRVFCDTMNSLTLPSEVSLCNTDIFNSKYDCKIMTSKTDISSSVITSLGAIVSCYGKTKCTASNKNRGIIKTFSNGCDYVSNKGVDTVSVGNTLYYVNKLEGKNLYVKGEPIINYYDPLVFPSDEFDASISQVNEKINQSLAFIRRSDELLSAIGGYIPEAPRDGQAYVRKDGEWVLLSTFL
Method: (§1) To measure concentration of the pre-fusion RSV F protein in cell culture supernatants, quantitative Octet-based method was used. […] Afterwards, the coated biosensors were blocked in mock cell culture supernatant. Quantitative experiment was performed as follows: temperature 30° C., shaking speed 1000 rpm, time of the assay 300 seconds. Concentration of the protein in the cell culture supernatant was calculated using standard curve. The standard curve was prepared for each coated antibody using the A2_F24 N67I+S215P (SEQ NO:21) protein, diluted in mock cell culture supernatant. The measurement was done on the day of supernatant harvest (day 1) and after storage of the supernatant at 4° C. for 5 days or longer. […] The data analysis was done using the FORTEBIO® Data Analysis 6.4 software (FORTEBIO®).

B1_N67I, S215P loop = biological target: T2, B1_N67I, S215P loop (RSV B1, UniProt O36634 26-540); assay: as above
T2 construct: Whole entry named; it begins with the signal peptide 1-26; also called PreFL N67I S215P, RSV B1, fibritin, Loop; F24-N67I + S215P: RSV B1, linker stabilized, fibritin
T2 chain: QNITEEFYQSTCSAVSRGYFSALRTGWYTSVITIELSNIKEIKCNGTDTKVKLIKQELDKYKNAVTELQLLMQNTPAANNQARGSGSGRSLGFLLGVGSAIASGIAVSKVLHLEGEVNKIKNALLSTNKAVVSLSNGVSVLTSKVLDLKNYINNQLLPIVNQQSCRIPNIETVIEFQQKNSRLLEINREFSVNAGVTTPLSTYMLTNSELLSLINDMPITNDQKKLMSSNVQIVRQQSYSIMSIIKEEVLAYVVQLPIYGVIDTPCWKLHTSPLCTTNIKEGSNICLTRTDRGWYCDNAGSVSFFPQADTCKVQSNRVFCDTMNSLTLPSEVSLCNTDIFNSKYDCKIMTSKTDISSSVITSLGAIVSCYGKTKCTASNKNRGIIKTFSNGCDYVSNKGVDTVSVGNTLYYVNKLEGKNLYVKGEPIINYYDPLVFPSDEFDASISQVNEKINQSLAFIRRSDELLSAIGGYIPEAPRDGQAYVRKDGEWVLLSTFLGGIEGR
Method: as §1

CR9501 (antibody)
% of CR9501 binding after 5 days at 4 C relative to day 1 (A2_F24 VI56IV (RSV A2)): 54%

B1: CR9501 (antibody, V domains shown)
VH: QVQLVQSGPGLVKPSQTLALTCNVSGASINSDNYYWTWIRQRPGGGLEWIGHISYTGNTYYTPSLKSRLSMSLETSQSQFSLRLTSVTAADSAVYFCAACGAYVLISNCGWFDSWGQGTQVTVSS
VL: EIVMTQSPSSLSASIGDRVTITCQASQDISTYLNWYQQKPGQAPRLLIYGASNLETGVPSRFTGSGYGTDFSVTISSLQPEDIATYYCQQYQYLPYTFAPGTKVEIK
notes: Monoclonal antibody with the variable regions of 58C5; Biotinylated and immobilised on streptavidin sensors in the Octet assays; also called pre-fusion-specific Mab CR9501
% protein concentration (CR9501) after 5 days at 4 C relative to day of harvest (B1_N67I, S215P): 90.9%
% protein concentration (CR9501) after 5 days at 4 C relative to day of harvest (B1_N67I, S215P loop): 108%
